For test [1], the target named is T1, human MSLN (mesothelin) (human, UniProt Q13421 296-598).
T1 construct: The construct coated on the plates is not described; also called human mesothelin
In words: ELISA on human MSLN, B cell culture supernatant, 1st screening. For orientation: An ELISA detects its analyte on a solid surface through an enzyme-linked reagent.

Test [2] has as its target T2, human CD73 (human, UniProt P21589 27-547, limits assumed).
T2 construct: also called control antigen
T2 sequence (looked up): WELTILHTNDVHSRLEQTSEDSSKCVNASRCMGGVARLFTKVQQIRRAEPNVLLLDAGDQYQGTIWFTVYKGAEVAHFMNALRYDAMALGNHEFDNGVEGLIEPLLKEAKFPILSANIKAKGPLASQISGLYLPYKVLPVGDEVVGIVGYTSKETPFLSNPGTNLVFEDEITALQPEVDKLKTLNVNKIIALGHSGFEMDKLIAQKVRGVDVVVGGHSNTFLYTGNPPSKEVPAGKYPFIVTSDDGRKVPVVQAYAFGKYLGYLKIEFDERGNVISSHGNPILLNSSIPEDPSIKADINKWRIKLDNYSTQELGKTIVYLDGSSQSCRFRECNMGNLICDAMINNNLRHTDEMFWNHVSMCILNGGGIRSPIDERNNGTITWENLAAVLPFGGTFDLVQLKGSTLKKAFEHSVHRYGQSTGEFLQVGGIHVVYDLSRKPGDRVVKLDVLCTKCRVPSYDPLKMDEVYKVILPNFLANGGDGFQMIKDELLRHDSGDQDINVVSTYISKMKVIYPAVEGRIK
In words: ELISA, B cell culture supernatant, 2nd screening.

The target in test [3] is T1, human MSLN (mesothelin). In words: ELISA on human MSLN, B cell culture supernatant, 2nd screening.
For test [4], the target named is T2, human CD73. In words: ELISA on control antigen human CD73, B cell culture supernatant, 2nd screening.
Test [5] concerns the target T3, human CA9 (carbonic anhydrase IX) (human, UniProt Q16790 38-414). Description: SPR (BIAcore), biotin-CA9 captured on CAP chip, antibody 0-50 nM as analyte. Here is the method: To determine if chimerization, and therefore the loss of Cys80-Cys171 disulfide bond, results in structural perturbations leading to loss of antigen binding, the binding affinity of mAbs 155D5, xi155D5, 1-55-2, and xi1-55-2 by surface plasmon resonance was evaluated. Biotinylated ligand (biotin-hTEM1 for 1-55-2, biotin-CA9 for 155D5) was captured on a coated biotin CAP BIAcore chip (GE Healthcare, Piscataway, N.J.) using HBS-EP as running buffer. Final antigen capture levels were 130 RU and 280 RU, respectively, for biotin-TEM1 and biotin-CA9. Serial dilutions of antibody (120 μL of 0-50 nM) were passed over the ligand-coated chip. […] The chip surface was regenerated with 6 M GuHCl, 250 mM NaOH. Sensograms were double referenced and kinetic parameters were determined using BIAEvaluations software (ver. 4.1).
On the technique in general: In SPR one partner is held on a chip, and binding of the other changes the refractive index at the surface.

Test [6] concerns the target T3, human CA9 (carbonic anhydrase IX). In words: BIAcore T100, mAb captured on anti-human IgG, antigen as analyte, 1:1 model; mAb purified by protein A (ProA). Here is the method: (§1) Antibody concentrations were adjusted to generate 30-40 RU signal when bound to the antigen. […] The sensor surface was washed by injecting HBS-P buffer for 1 min at a flow rate of 50 μL/min. To record the antigen association to the captured mAb, a series of increasing concentrations of antigen was injected for 60 sec at a flow rate of 50 μL/min. The dissociation of antigen was monitored for 30 min at the same flow rate. The sensor surface was regenerated by injecting 3 M MgCl₂ for 1 min and then 30 sec at a flow rate of 30 μL/min. Sensograms were analyzed with Biacore T100 Evaluation Software using a 1:1 Langmuir binding model.
(§2) xi155D5 and the humanized variants were purified by standard protein A chromatography or the decapping method, and their affinity was analyzed using BIAcore (Table 13).

For test [7] the target is unchanged. In words: BIAcore T100, mAb captured on anti-human IgG, antigen as analyte, 1:1 model; mAb purified by protein A (ProA); protein A (ProA) purified, not decapped. Here is the method:
as §1, §2

For test [8], the target named is T4, human endosialin/TEM1 extracellular domain fused to mouse IgG2b Fc (human).
T4 construct: also called TEM1-Fc
T4 chain: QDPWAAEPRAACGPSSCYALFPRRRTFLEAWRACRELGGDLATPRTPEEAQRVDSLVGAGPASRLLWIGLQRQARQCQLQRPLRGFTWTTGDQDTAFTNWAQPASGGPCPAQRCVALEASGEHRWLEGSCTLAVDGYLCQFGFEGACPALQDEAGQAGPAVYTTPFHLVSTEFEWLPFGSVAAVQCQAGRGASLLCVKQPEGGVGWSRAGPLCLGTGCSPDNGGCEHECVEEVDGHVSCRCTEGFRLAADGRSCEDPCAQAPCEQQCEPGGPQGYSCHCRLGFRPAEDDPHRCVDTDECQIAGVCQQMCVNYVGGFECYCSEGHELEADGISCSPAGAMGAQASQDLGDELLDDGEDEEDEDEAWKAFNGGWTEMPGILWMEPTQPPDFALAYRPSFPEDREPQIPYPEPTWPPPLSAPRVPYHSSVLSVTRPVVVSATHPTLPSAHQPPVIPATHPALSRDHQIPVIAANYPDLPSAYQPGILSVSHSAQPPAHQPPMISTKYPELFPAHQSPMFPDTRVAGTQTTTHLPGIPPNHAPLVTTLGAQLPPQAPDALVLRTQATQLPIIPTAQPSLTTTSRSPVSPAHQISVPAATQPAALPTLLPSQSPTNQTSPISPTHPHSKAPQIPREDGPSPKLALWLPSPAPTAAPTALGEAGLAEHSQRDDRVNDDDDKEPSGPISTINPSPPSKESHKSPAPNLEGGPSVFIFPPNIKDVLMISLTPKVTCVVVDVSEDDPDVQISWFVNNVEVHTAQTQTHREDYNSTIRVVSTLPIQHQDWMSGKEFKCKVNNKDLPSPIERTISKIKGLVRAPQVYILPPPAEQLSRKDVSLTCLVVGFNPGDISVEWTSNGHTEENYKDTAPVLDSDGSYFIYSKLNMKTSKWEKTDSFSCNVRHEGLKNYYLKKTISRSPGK
Description: SPR, ligand TEM1-Fc, flow cell Fc4.

The target of test [9] is T4, human endosialin/TEM1 extracellular …. Description: SPR, ligand TEM1-Fc, flow cell Fc3.
The target in test [10] is T3, human CA9 (carbonic anhydrase IX). In words: SPR, ligand CA9, flow cell Fc3.
Test [11] shares this target. In words: SPR, ligand CA9, flow cell Fc4.

Numbering of substitutions follows the chain as printed.

T1 sequence (Q13421 other isoform, or with tags, fused parts or gaps limits assumed, form in doubt): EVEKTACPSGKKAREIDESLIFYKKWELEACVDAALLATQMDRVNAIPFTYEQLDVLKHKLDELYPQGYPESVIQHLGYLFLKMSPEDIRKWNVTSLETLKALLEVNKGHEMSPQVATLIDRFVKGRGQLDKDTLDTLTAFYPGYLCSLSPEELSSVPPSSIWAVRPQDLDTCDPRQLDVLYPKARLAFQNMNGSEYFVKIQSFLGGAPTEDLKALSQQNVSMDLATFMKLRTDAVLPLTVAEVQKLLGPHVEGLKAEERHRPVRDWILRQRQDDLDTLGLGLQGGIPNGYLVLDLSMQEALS

B1: 33O11 (rabbit anti-MSLN mAb) (antibody, V domains shown)
VH: QSVEESGGRLVTPGTPLTLTCTVSGISLSSDAISWVRQAPGKGLEYIGIINGGGNTYYASWAKGRFTISKTSTTVDLKITSPTTEDTATYFCARGIQHGGGNSDYYYYGMDLWGPGTLVTVSS
VL: EVLMTQTPSSVSAAVGDTVTIKCQASQSISSVLSWYQQKPGQPPKLLIYLASTLASGVPSRFSGSRSGTEFTLTISDLECDDAATYYCQTNYGTSSSNYGFAFGGGTEVVVK
As to B1, in test [1], the “Optical Density (Anti-MSLN reactivity, 1st screening)” value worked out at 0.282 OD. In addition, in test [2], the binding result is “no binding”. The “Optical Density (Anti-MSLN reactivity, 2nd screening)” value in [3] was found to be 0.504 OD. Besides, the “Optical Density (Anti-CD73 reactivity, 2nd screening)” value in test [4] was determined as 0.0818 OD.

B2: 178F16 (rabbit anti-MSLN mAb) (antibody, V domains shown)
VH: QSLEESGGRLVTPGTPLTLTCTASGFSLSNYAMTWVRQAPGKGLEYIGIISTGGITYYMDSAKGRFTISRTSTTVDLKMTSLTTEDTATYFCGRNAGGSYIFYYFDLWGQGTLVTVSS
VL: AFELTQTPSSVEAAVGGTVTIKCQASQSIYSYLAWYQQKPGQPPKLLIYSASTLASGVSSRFRGSGSGTEYILTISDLECADAATYYCQTYYDIVTSTFGGGTEVVVK
For the molecule B2, the “Optical Density (Anti-MSLN reactivity, 1st screening)” value in [1] is 0.966 OD. Also, in test [2], the binding result was “no binding”. Besides, in test [3], the “Optical Density (Anti-MSLN reactivity, 2nd screening)” value was 1.88 OD. The “Optical Density (Anti-CD73 reactivity, 2nd screening)” value in test [4] came to 0.141 OD.

B3: 324O5 (rabbit anti-MSLN mAb) (antibody, V domains shown)
VH: B2 VH
VL: B2 VL with I72T
B3: the “Optical Density (Anti-MSLN reactivity, 1st screening)” value in [1] turned out to be 1.4 OD. In addition, in [2], the binding result is “no binding”. Besides, the “Optical Density (Anti-MSLN reactivity, 2nd screening)” value in [3] is 2.22 OD. In addition, the “Optical Density (Anti-CD73 reactivity, 2nd screening)” value in [4] stood at 0.0801 OD.

B4: 237N18 (rabbit anti-MSLN mAb) (antibody, V domains shown)
VH: QSLEESGGRLVAPGTPLTLTCTVSGFSLSSYHMSWVRQAPGEGLEWIGGITAMSRTYYASWAKGRFTISKTSTTVHLKITSPTTEDTATYFCAREPGFVSNIWGPGTLVTVSL
VL: AVVLTQTASPVSGVVGGTVTIKCQASQNIYSNLAWYQQKPGQRPKLLMYDASTLASGVPSRFKGSGSGTQFTLTISDLECADAATYYCQSISSVDNNVFGGGTEVVVK
On to B4, for which the “Optical Density (Anti-MSLN reactivity, 1st screening)” value in test [1] is 0.362 OD. In addition, the binding result in [2] is recorded as “no binding”. In test [3], the “Optical Density (Anti-MSLN reactivity, 2nd screening)” value was found to be 0.668 OD. Moreover, in test [4], the “Optical Density (Anti-CD73 reactivity, 2nd screening)” value was 0.0918 OD.

B5: xi155D5 (rabbit/human chimerized 155D5 mAb) (antibody, human IgG1, kappa, V domains shown)
VH: QSVKESGGRLVTPGTPLTLTCTVSGFSLNSYAMIWVRQAPGEGLEYIGFITTGGTTYYASWAKGRFTISRTSTTVDLKLTRPTTEDTATYFCARDRVKSYDDYGDLDAFEPWGPGTLVTISS
VL: ELVMTQTPSSVSAAVGGTVTINCQASQSISSYLAWYQQKPGQPPKLLIYYASTLASGVPSRFKGSGSGTEFTLTITGVQCDDAATYYCLGVYGYSFDDGIAFGGGTELEIKR
notes: Human IgG1 kappa constant regions; Unpaired Cys80 of the light chain is capped by a free cysteine after plain protein A purification; also called xi155D5 mAb
One may read the Kd as the equilibrium constant for the complex coming apart. A lower Kd goes with a tighter complex. One may read the koff as the first-order rate constant of dissociation. Read a high koff as fast dissociation. As a reminder, the kon is the second-order rate constant of association. A lower kon goes with slow association. As to B5, the equilibrium dissociation constant (Kd) in [5] worked out at 0.051 nM; in test [6] it was 0.324 nM. Besides, the koff in [5] was 2.4e-05 s⁻¹; in test [6], 0.000149 s⁻¹. The kon in test [5] came to 460000 M⁻¹ s⁻¹; in test [7] it was 458000 M⁻¹ s⁻¹.

B6: xi155D5/xi1-55-2 bivalent/bispecific antigen-binding molecule (bispecific antibody)
heavy 1: B5 VH
light 1: ELVMTQTPSSVSAAVGGTVTINCQASQSISSYLAWYQQKPGQPPKLLIYYASTLASGVPSRFKGSGSGTEFTLTITGVQCDDAATYYCLGVYGYSFDDGIAFGGGTELEIKRTVAAPSVFIFPPSDEQLKSGTASVVCLLNNFYPREAKVQWKVDNALQSGNSQESVTEQDSKDSTYSLSSTLTLSKADYEKHKVYACEVTHQGLSSPVTKSFNRGEC
heavy 2: QSVEESGGDLVKPEGSLTLTCTASGFSFSSSYWGCWVRQAPGKGPEWIACIYGGSSGTTYYPNWAKGRFSISKTSSTTVTLQMASLTAADTATYFCARVTNGGDWDFKLWGPGTLVTISS
light 2: ELVMTQTPASVEVAVGGTVTIKCQASQSINTYLAWYQQKPGQPPKLLIYRASTLASGVPSRFKGSGSGTEFTLTISDLECADAATYYCQQSVRVIDVDNTFGGGTEVVVKRTVAAPSVFIFPPSDEQLKSGTASVVCLLNNFYPREAKVQWKVDNALQSGNSQESVTEQDSKDSTYSLSSTLTLSKADYEKHKVYACEVTHQGLSSPVTKSFNRGEC
modifications: maleimido-PEG4-azide on Cys80, joined by copper-free click chemistry to the DBCO on Cys80 of the xi155D5 light chain; maleimido-PEG4-dibenzylcyclooctyne (DBCO) on Cys80, joined by copper-free click chemistry to the azide on Cys80 of the xi1-55-2 light chain
notes: Two papain Fabs linked chemically through their light chain Cys80 residues; mass 95,939 Da by mass spectrometry; also called biFab; bivalent/bispecific Fab-Fab; not shown: human IgG1 CH1 and hinge up to the papain cleavage site
Consider B6, for which the Kd was determined as 0.185 nM in test [8], 0.31 nM in [9], 0.121 nM in [10] and 0.15 nM in test [11]. Moreover, the koff in test [8] was found to be 0.000189 s⁻¹; in test [9], 0.000257 s⁻¹; in test [10] it was 3.91e-05 s⁻¹; in test [11], 4.4e-05 s⁻¹. For the same molecule, the kon stood at 1.02e+06 M⁻¹ s⁻¹ in [8], 829000 M⁻¹ s⁻¹ in test [9], 322000 M⁻¹ s⁻¹ in [10] and 294000 M⁻¹ s⁻¹ in test [11].

B7: 383I18 (rabbit anti-MSLN mAb) (antibody, V domains shown)
VH: QSVEESGGRLVTPGTPLTLTCTVSGFSLSSYAMGWVRQAPGEGLEWIGTISTGGITYYASWAKGRFTISKTSTTVDLKITSPTTEDTATYFCARVGSSGYLFYFFNLWGQGTLVTVSS
VL: VFELTQTPSPVSAAVGGTVTIRCQASQNIKSYLAWYQQKPGQPPKLLIYEASILASGVSSRFKGSGSGTEFTLTISDLECADAATYYCQSYYAASSNAFGGGTEVVVK
Take B7: the “Optical Density (Anti-MSLN reactivity, 1st screening)” value in test [1] was 0.249 OD. Further, the binding result in test [2] is given as “no binding”. For the same molecule, the “Optical Density (Anti-MSLN reactivity, 2nd screening)” value in test [3] is 0.296 OD. For the same molecule, the “Optical Density (Anti-CD73 reactivity, 2nd screening)” value in test [4] came to 0.0744 OD.

The values above are taken from US20160369011A1 (EISAI R AND D MANAGEMENT, published 2016).
